Assay results published in EP4785962A1, “ANTIBODY-DRUG CONJUGATE TARGETING TROP2, AND PREPARATION METHOD AND USE THEREFOR” (priority 2023, dated 2025).

Columns and labels:
[1] = tested on: human hypopharyngeal carcinoma squamous cell line FaDu; assay: In vitro cytotoxicity test, FaDu cells, 6 days; type: cell-based; settings: 6 days of culture
Experimental: (§1) 10% FBS (SH30406.05, HYCLONE) was added to RPMI 1640 (22400-071, Gibco), and the mixture was mixed well to prepare a BxPC3 cell (ATCC) growth medium. BxPC3 or FaDu cells were adjusted to a concentration of 50000 cells/mL with a growth medium, seeded into a 96-well white-bottom plate (167008, NUNC) at 50 µL per well (2500 cells/well), and incubated overnight in an incubator at 37 °C. The antibody was diluted with growth medium and serially diluted 5-fold from 200 nM (2×) to obtain 9 gradients, with the final concentration being […]. The diluted antibody-drug conjugate or control was added at 50 µL/well, and the total volume was 100 µL. […] The cell pellet was fully lysed by shaking on a plate shaker for 5 min, and the luminescence signal was stabilized by standing at room temperature for 10 min. The culture plate was tested on a microplate reader (spectra MAX i3x, Molecular Divices), the […] were taken, and the cell viability was calculated. […]
(§2) The cell proliferation inhibition rate after 6 days of culture was calculated using the following formula.
(§3) Cell proliferation inhibition rate (%) = […], where a: the average value of experimental sample-added wells after 6 days of culture; b: the average value of control medium-added wells after 6 days of culture. The data were fitted by GraphPad Prism and the IC50 of the drug was calculated (Table 4).

[2] = tested on: human pancreatic cancer cell line BxPC-3; assay: In vitro cytotoxicity test, BxPC3 cells, 6 days; type: cell-based; settings: BxPC3, 6 days of culture
Experimental: as §1, §2, §3

[3] = tested on: Human gastric cancer cell line NCI-N87; assay: Mouse xenograft tumor model NCI-N87; type: in vivo, immunodeficient mice CB17-SCID; settings: intraperitoneal injection
Experimental: • 1. Mice: immunodeficient mice CB17-SCID (Vital River) aged 6-8 weeks were placed in an SPF experimental environment for 3-5 days before the experiment to better adapt to the current living environment. In all experiments, the long and short diameters of the tumor were measured twice a week using a vernier caliper, and the tumor volume (mm^3) was calculated from the measured data. The calculation formula is as follows: Tumor volume(mm^3) = 0.5 × long diameter(mm) × short diameter(mm) × short diameter(mm) [formula] • 2. Human gastric cancer cell line NCI-N87 (ATCC) cells were resuspended in 1× PBS (Gibco, 10010049) at an appropriate concentration, and the tumor cells were implanted subcutaneously in the right abdomen of the mice at an inoculation amount of 2×10^6 /mouse. When the tumor volume reached 150-200 mm^3, the mice were divided into groups such that the average initial administration volume of each group was substantially the same. After grouping, different doses of antibody-drug conjugates hRs7-DXd, hRS7-MB3 and hTINA1-DXd, or control-drug conjugates IgG-MB3, IgG-DXd and IgG control were administered by intraperitoneal injection. […] Compared with hRS7-DXd, hRS7-MB3 has a stronger tumor inhibitory effect. […] Non-small cell lung cancer cell line HCC827 cells purchased from ATCC were inoculated subcutaneously into mice (2×10^6 /mouse), and when the tumor volume reached 120-150 mm^3, the mice were grouped and administered. Different doses of the antibody-drug conjugate and the control drug were intraperitoneally injected into the mice, and the administration was performed only once throughout the experiment. The growth status of the mice was observed, and the changes in tumor volume of the mice were measured. […] The lung squamous cell carcinoma cell line LK-2 (CBP60105) purchased from Nanjing Cobioer Biosciences was implanted subcutaneously in the right abdomen of the mice at an inoculation amount of 3 × 10 ^6 cells/mouse. When the tumor volume reached 150-200 mm^3, the mice were divided into groups such that the average initial administration volume of each group was substantially the same. The mice were administered only once throughout the experiment and injected intraperitoneally at a dose of 10 mg/kg. IgG-MB3 or IgG-DXd was used as a negative control. It was observed that two TROP2-targeted ADCs were also able to delay tumor growth in a tumor model with relatively low TROP2 expression (FIG. 7). […] The pancreatic cancer cell line BxPC3 cells purchased from ATCC were implanted subcutaneously in the right abdomen of the mice at an inoculation amount of 3 × 10 ^6 cells/mouse. […]

[4] = tested on: pancreatic cancer cell line BxPC3; assay: Mouse xenograft tumor model BxPC3; type: in vivo, immunodeficient mice CB17-SCID; settings: low dose (3 mg/kg), intraperitoneal, single administration
Experimental: • 1. Mice: immunodeficient mice CB17-SCID (Vital River) aged 6-8 weeks were placed in an SPF experimental environment for 3-5 days before the experiment to better adapt to the current living environment. In all experiments, the long and short diameters of the tumor were measured twice a week using a vernier caliper, and the tumor volume (mm^3) was calculated from the measured data. The calculation formula is as follows: Tumor volume(mm^3) = 0.5 × long diameter(mm) × short diameter(mm) × short diameter(mm) [formula] • 2. Human gastric cancer cell line NCI-N87 (ATCC) cells were resuspended in 1× PBS (Gibco, 10010049) at an appropriate concentration, and the tumor cells were implanted subcutaneously in the right abdomen of the mice at an inoculation amount of 2×10^6 /mouse. When the tumor volume reached 150-200 mm^3, the mice were divided into groups such that the average initial administration volume of each group was substantially the same. After grouping, different doses of antibody-drug conjugates hRs7-DXd, hRS7-MB3 and hTINA1-DXd, or control-drug conjugates IgG-MB3, IgG-DXd and IgG control were administered by intraperitoneal injection. […] Compared with hRS7-DXd, hRS7-MB3 has a stronger tumor inhibitory effect. […] The growth status of the mice was observed, and the changes in tumor volume of the mice were measured. […]

[5] = once every three weeks for a total of 3 times; WO2020240467A1; cited from earlier work

B1: hTINA1-DXd: control ADC: antibody hTINA1 conjugated with Linker-DXd, average DAR 4.3; TROP2-ADC from Daiichi Sankyo (conjugate, chains of the INN, looked up)
VH: QVQLVQSGAEVKKPGASVKVSCKASGYTFTTAGMQWVRQAPGQGLEWMGWINTHSGVPKYAEDFKGRVTISADTSTSTAYLQLSSLKSEDTAVYYCARSGFGSSYWYFDVWGQGTLVTVSS
VL: DIQMTQSPSSLSASVGDRVTITCKASQDVSTAVAWYQQKPGKAPKLLIYSASYRYTGVPSRFSGSGSGTDFTLTISSLQPEDFAVYYCQQHYITPLTFGQGTKLEIK
modifications: deruxtecan (Linker-DXd), DAR 4.3
notes: control ADC: antibody hTINA1 conjugated with Linker-DXd, average DAR 4.3; TROP2-ADC from Daiichi Sankyo
With B1 the IC50 [1] was 1.5 nM, the IC50 [2] was 0.55 nM and the tumor inhibitory effect ([3]; high-dose group (3 mg/kg)) was “comparable tumor inhibitory effects”. The tumor inhibitory effect ([3]; low dose (1 mg/kg), compared with IgG-MB3 and IgG-DXd) was “a certain degree of tumor inhibitory effect”, the tumor inhibitory effect [4] was “equivalent tumor inhibitory effects” and the HNSTD [5] was 30 mg/kg.
